# Test results: patent US6897294 (Genentech, dated 2005)
# B1: vascular endothelial growth factor VEGF165 (ligand, UniProt P15692-4 27-191, looked up)
# chain: APMAEGGGQNHHEVVKFMDVYQRSYCHPIETLVDIFQEYPDEIEYIFKPSCVPLMRCGGCCNDEGLECVPTEESNITMQIMRIKPHQGQHIGEMSFLQHNKCECRPKKDRARQENPCGPCSERRKHLFVQDPQTCKCSCKNTDSRCKARQLELNERTCRCDKPRR
# notes: mature; also called VEGF ligand
# B2: flt-1(1, 2, 3)/FLT4 chimeric receptor (receptor)
# chain: YSMTPPTLSLKGTQHIMQAGQTLHLQCRGEAAHKWSLPEMVSKESERLSITKSACGRNGKQFCSTLTLNTAQANHTGFYSCKYLAVPTSKKKETESAIYIFISDTGRPFVEMYSEIPEIIHMTEGRELVIPCRVTSPNITVTLKKFPLDTLIPDGKRIIWDSRKGFIISNATYKEIGLLTCEATVNGHLYKTNYLTHRQTNTIIDVQISTPRPVKLLRGHTLVLNCTATTPLNTRVQMTWSYPDEKNKRASVRRRIDQSNSHANIFYSVLTIDKMQNKDKGLYTCRVRSGPSFKSVNTSVRVHENPFISVEWLKGPILEATAGDELVKLPVKLAAYPPPEFQWYKDGKALSGRHSPHALVLKEVTEASTGTYTLALWNSAAGLRRNISLELVVNVPPQIHEKEASSPSIYSRHSRQALTCTAYGVPLPLSIQWHWRPWTPCKMFAQRSLRRRQQQDLMPQCRDWRAVTTQDAVNPIESLDTWTEFVEGKNKTVSKLVIQNANVSAMYKCVVSNKVGQDERLIYFYVTTIPDGFTIESKPSEELLEGQPVLLSCQADSYKYEHLRWYRLNLSTLHDAHGNPLLLDCKNVHLFATPLAASLEEVAPGARHATLSLSIPRVAPEHEGHYVCEVQDRRSHDKHCHKKYLSVQALEAPRLTQNLTDLLVNVSDSLEMQCLVAGAHAPSIVWYKDERLLEEKSGVDLADSNQKLSIQRVREEDAGRYLCSVCNAKGCVNSSASVAVEGSEDKGSMEIVILVGTGVIAVFFWVLLLLIFCNMRRPAHADIKTGYLSIIMDPGEVPLEEQCEYLSYDASQWEFPRERLHLGRVLGYGAFGKVVEASAFGIHKGSSCDTVAVKMLKEGATASEHRALMSELKILIHIGNHLNVVNLLGACTKPQGPLMVIVEFCKYGNLSNFLRAKRDAFSPCAEKSPEQRGRFRAMVELARLDRRRPGSSDRVLFARFSKTEGGARRASPDQEAEDLWLSPLTMEDLVCYSFQVARGMEFLASRKCIHRDLAARNILLSESDVVKICDFGLARDIYKDPDYVRKGSARLPLKWMAPESIFDKVYTTQSDVWSFGVLLWEIFSLGASPYPGVQINEEFCQRLRDGTRMRAPELATPAIRRIMLNCWSGDPKARPAFSELVEILGDLLQGRGLQEEEEVCMAPRSSQSSEEGSFSQVSTMALHIAQADAEDSPPSLQRHSLAARYYNWVSFPGCLARGAETRGSSRMKTFEEFPMTPTTYKGSVDNQTDSGMVLASEEFEQIESRHRQESGFSCKGPGQNVAVTRAHPDSQGRRRRPERGARGGQVFYNSEYGELSEPSEEDHCSPSARVTFFTDNSY
# notes: Stably expressed in NIH 3T3 cells for thymidine incorporation; also called flt-1 domains 1-3/FLT4 chimeric receptor
# B3: intact FLT4 receptor (receptor)
# chain: YSMTPPTLNITEESHVIDTGDSLSISCRGQHPLEWAWPGAQEAPATGDKDSEDTGVVRDCEGTDARPYCKVLLLHEVHANDTGSYVCYYKYIKARIEGTTAASSYVFVRDFEQPFINKPDTLLVNRKDAMWVPCLVSIPGLNVTLRSQSSVLWPDGQEVVWDDRRGMLVSTPLLHDALYLQCETTWGDQDFLSNPFLVHITGNELYDIQLLPRKSLELLVGEKLVLNCTVWAEFNSGVTFDWDYPGKQAERGKWVPERRSQQTHTELSSILTIHNVSQHDLGSYVCKANNGIQRFRESTEVIVHENPFISVEWLKGPILEATAGDELVKLPVKLAAYPPPEFQWYKDGKALSGRHSPHALVLKEVTEASTGTYTLALWNSAAGLRRNISLELVVNVPPQIHEKEASSPSIYSRHSRQALTCTAYGVPLPLSIQWHWRPWTPCKMFAQRSLRRRQQQDLMPQCRDWRAVTTQDAVNPIISLDTWTEFVQGKNKTVSKLVIQNANVSAMYKCVVSNKVGQDERLIYFYVTTIPDGFTIESKPSEELLEGQPVLLSCQADSYKYEHLRWYRLNLSTLHDAHGNPLLLDCKNVHLFATPLAASLEEVAPGARHATLSLSIPRVAPEHEGHYVCEVQDRRSHDKHCHKKYLSVQALEAPRLTQNLTDLLVNVSDSLEMQCLVAGAHAPSIVWYKDERLLEEKSGVDLADSNQKLSIQRVREEDAGRYLCSVCNAKGCVNSSASVAVEGSEDKGSMEIVILVGTGVIAVFFWVLLLLIFCNMRRPANADIKTGYLSIIMDPGEVPLEEQCEYLSYDASQWEFPRERLHLGRVLGYGAFGFVVEASAFGIHKGSSCDTVAVKMLKEGASASEHRALMSELKILIHIGNHLNVVNLLGACTKPQGPLMVIVEFCKYGNLSNFLRAKRDAFSPCAEKSPEQRGRFRAMVELARLDRRRPGSSDRVLFARFSKSEGGARRASPDQEAEDLWLSPLTMEDLVCYSFQVARGMEFLASRKCIHRDLAARNILLSESDVVKICDFGLARDIYKDPDYVRKGSARLPLKWMAPESIFDKVYTTQSDVMSFGVLLWEIFSLGASPYPGVQINEEFCQRLRDGTRMRAPELATPAIRRIMLNCWSGDPKARPAFSEVLEILGDLLQGRGLQEEEEVCMAPRSSQSSEEGSFSQVSTMALHIIQADAEDSPPSLQRHSLAARYYNWVSFPGCLARGAETRGSSRMKTFEEFPMTPTTYKGSVDNQTDSGMVLASEEFEQIESRHRQESGFSCKGPGQNVAVTRAHPDSQGRRRRPERGARGGQVFYNSEYGELSEPSEEDHCSPSARVTFFTDNSY
# notes: Transiently expressed on 293 cells; also called entire human FLT4 receptor
# Assays:
# [1] = molecular target: T1, flt-1 extracellular domain/IgG Fc chimera (flt-1/IgG) (human, UniProt P17948 27-758); assay: unlabeled VEGF titrated against 125I-VEGF165 binding to 1 ng immunoreactive flt-1/IgG on anti-Fc plates; 4-parameter fit (FIG. 5)
# T1 construct: Secreted from CEN4 cells and used as conditioned medium quantified by Fc ELISA; also called intact flt-1/IgG chimeric VEGF receptor protein; native flt-1/IgG; not shown: Fc of human IgG1 (amino acids 216-443 of the Capon IgG gamma-1 heavy chain clone)
# T1 sequence (P17948 other isoform, or with tags, fused parts or gaps mutant limits assumed): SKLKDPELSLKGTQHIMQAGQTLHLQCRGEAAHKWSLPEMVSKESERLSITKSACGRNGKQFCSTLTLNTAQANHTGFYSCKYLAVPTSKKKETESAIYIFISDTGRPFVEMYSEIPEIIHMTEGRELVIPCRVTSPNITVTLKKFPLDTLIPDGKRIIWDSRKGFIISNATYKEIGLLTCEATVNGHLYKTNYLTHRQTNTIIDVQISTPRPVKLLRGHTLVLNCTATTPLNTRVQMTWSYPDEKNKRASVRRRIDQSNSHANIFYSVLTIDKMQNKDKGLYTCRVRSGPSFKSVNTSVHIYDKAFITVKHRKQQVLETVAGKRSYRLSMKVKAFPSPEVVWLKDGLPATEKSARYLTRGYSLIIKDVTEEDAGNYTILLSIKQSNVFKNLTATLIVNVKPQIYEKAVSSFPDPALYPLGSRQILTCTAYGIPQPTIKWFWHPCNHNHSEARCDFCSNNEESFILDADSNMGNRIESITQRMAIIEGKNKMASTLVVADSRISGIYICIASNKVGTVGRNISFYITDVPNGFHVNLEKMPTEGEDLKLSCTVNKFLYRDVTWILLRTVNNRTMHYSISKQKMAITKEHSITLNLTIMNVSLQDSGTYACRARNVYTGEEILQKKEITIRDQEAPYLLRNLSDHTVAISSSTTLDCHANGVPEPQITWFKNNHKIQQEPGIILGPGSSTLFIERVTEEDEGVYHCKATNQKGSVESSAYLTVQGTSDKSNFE
# Protocol: (§1) Binding assays with the soluble chimeric VEGF receptors generated in Example 1 above were performed essentially as described by Park et al., *J. Biol. Chem.* 269:25646–25654 (1994). […] Plates were blocked for 1 hr with 10% fetal bovine serum in PBS (buffer B). After removal of the blocking buffer, 100 µl of a binding cocktail was added to each well. […] The specific activity of the iodinated VEGF was 5.69 ×10^7 cpm/microgram. Incubation in the coated wells proceeded for 4 hrs at room temperature, followed by 4 washes with buffer B. Binding was determined by counting individual wells in a gamma counter. Data was analyzed using a 4-parameter non-linear curve fitting program (Kalidagraph, Abelbeck Software).
# Binding assays were performed essentially as described above. […] This occurs at the point of inflection of the curve. […] Thus, the flt(1, 2, 3) deletion chimera behaves in a similar fashion to the intact flt-1/IgG chimeric protein with respect to binding to the VEGF ligand.
# [2] = molecular target: T2, flt-1(2)/FLT4 chimeric receptor (human, UniProt P35916 25-1363); assay: saturation binding of 125I-VEGF to transiently transfected 293 cells, Scatchard analysis
# T2 construct: Stably expressed in NIH 3T3 cells for thymidine incorporation; also called flt-1 domain 2/FLT4 chimeric receptor
# Protocol: (§2) After preparation of these expression constructs, 293 cells were transfected with the constructs via DEAE-Dextran and transiently-expressing cells were analyzed for the ability to bind to the VEGF ligand. To detect binding of the VEGF ligand, a saturation binding assay was performed on transiently-expressing 293 cells expressing the intact FLT4 receptor, the flt-1 domain 2/FLT4 chimeric receptor, the flt-1 domains 1–3/FLT4 chimeric receptor, or the intact flt-1 receptor. […] The cell mixture was then layered over a 0.75 ml cushion of 30% sucrose, centrifuged for 10 minutes at maximum speed, and the pellet was recovered and counted in a gamma counter. […] The amount of counts added and the recovered counts bound were then subjected to scatchard analysis.
# [3] = molecular target: T3, flt(2): flt-1 Ig-like domain 2 only fused to the Fc of IgG (human, UniProt P01857-1 104-330 = IgG part, limits assumed); assay: 125I-VEGF165 binding to chimeric protein captured on anti-human Fc coated plates (FIG. 4)
# T3 construct: domain: Fc of IgG
# T3 sequence (P01857 other isoform, or with tags, fused parts or gaps limits assumed): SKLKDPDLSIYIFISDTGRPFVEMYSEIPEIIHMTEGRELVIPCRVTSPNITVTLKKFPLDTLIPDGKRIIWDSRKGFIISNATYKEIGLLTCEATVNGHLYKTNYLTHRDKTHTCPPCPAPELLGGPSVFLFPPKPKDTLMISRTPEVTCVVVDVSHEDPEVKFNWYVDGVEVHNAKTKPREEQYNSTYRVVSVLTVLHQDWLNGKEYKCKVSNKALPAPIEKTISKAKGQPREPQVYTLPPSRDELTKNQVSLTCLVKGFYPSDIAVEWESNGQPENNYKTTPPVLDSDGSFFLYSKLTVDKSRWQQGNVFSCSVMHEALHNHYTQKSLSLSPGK
# Protocol: as §1
# [4] = molecular target: T4, flt(1,2): flt-1 Ig-like domains 1 and 2 only fused to the Fc of IgG (human, UniProt P01857-1 104-330 = IgG part, limits assumed); assay: as above
# T4 construct: domain: Fc of IgG; The true C-terminal limit may therefore be 225
# T4 sequence (P01857 other isoform, or with tags, fused parts or gaps limits assumed): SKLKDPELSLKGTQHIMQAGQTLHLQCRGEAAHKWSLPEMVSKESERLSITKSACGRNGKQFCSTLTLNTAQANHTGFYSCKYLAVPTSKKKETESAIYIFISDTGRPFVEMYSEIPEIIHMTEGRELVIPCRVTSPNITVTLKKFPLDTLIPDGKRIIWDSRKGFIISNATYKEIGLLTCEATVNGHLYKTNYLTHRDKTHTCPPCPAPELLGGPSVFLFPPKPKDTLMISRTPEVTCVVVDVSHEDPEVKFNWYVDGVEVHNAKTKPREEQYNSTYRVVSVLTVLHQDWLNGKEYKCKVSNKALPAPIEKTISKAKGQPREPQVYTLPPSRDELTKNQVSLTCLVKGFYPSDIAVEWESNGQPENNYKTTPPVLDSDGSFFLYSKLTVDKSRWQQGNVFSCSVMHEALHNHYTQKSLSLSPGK
# Protocol: as §1
# [5] = molecular target: B1; assay: saturation binding of 125I-VEGF to transiently transfected 293 cells, Scatchard analysis
# Protocol: as §2
# [6] = molecular target: B1; assay: saturation binding of 125I-VEGF to transiently transfected 293 cells, background of non-transfected cells subtracted
# Protocol: as §2
binder,measurement,setting,value
B1,IC50,[1],1.89 ng/mL
same,Kd,[2],~0.0102 nM
same,binding result,[3],no binding
same,binding result,[4],no binding
B2,Kd,[5],~0.0104 nM
B3,binding result,[6],no binding
